# B1: Human recombinant anti-NS3 Fab (HFab-aNS3) (Fab, V domains shown)
# VH: LEESGGGLVKPGGSLRLSCVASGLTFSRYNMQWVRQAPGKGLEWVASISTSGVYIYYADSVTGRFTISRDNSKNSLYLQMNSLGAEDTAVYYCARDLTFLCGGDCLQPWGQG
# VL: AELTQSPSSLSASVGDRVTITCRASQGISRYLAWFQQRPGKAPKSLIYAASHLQSGVPSRFSASGSGTEFTLSISSLQPEDFATYYCQQYDTYPYTFGQGTKLEIKR
# Target: His-tagged recombinant full-length HCV NS3 protein (aa 1027 to aa 1657 of the HCV polyprotein, 1b genotype), purified from E. coli (hepatitis C virus, 1b genotype)
# Experiment: cell-based or functional assay
binder,measurement,value
B1,inhibition of NTPase activity,15%
same,inhibition of helicase activity,54%

# From US7314919
